Data on two molecules can be found in US20230174628A1 (PEKING UNIVERSITY, published 2023).

The test deals with S protein (Spike) of the novel coronavirus SARS-CoV-2 (SARS-CoV-2, UniProt P0DTC2 14-1273). Briefly: cell-based or functional assay.

B1: antigen-binding unit ABU-190 (antibody, V domains shown)
VH: EVQLVESGGGLIQPGGSLRLSCAASGITVSSNYMSWVRQAPGKGLEWVSVIYSGGSTDYADSVKGRFTISRDKSKNTLYLQMNSLRAEDTAVYYCARDLGEAGGMDVWGQGTTVTVSS
VL: AIQLTQSPSSLSASVGDRVTITCRASQGISSYLAWYQQKPGKAPKLLIYAASTLQSGVPSRFSGSGSGTDFTLTISSLQPEDFATYYCQQLNSYPPAFGGGTKVEIK
In the case of B1, the “IC50, PRNT with SARS-CoV-2 euvirus on Vero E6 cells” value was determined as 0.8 mg/L and the “IC50, neutralization of SARS-CoV-2 pseudovirus (Huh-7 cells, luciferase)” value is 0.039 mg/L.

B2: antigen-binding unit ABU-174 (antibody, V domains shown)
VH: QVQLQQWGAGLLKPSETLSLTCAVYGGSFSDYYWNWIRRPPGKGLEWIGEITHSGSTNYNPSLKSRVTISVDTSKNQFSLKLSSVTAADTAVYYCARGQGYGRVLLWFGEWGQGTLVTVSS
VL: EIVLTQSPATLSLSPGERATLSCRASQSVSTYLAWYQQKPGQAPRLLIYDASNRATGIPARFSGSGSGTDFTLTISSLEPEDFAVYYCQQRSNWITFGQGTRLEIK
For B2, the “IC50, PRNT with SARS-CoV-2 euvirus on Vero E6 cells” value came to 0.5 mg/L and the “IC50, neutralization of SARS-CoV-2 pseudovirus (Huh-7 cells, luciferase)” value is 0.026 mg/L.
